Blank lines part the entries; values can stand above or below the binder they belong to.
Legend:
Experiment in all cases: cell-based or functional assay
ETB endothelin receptor = molecular target: ETB endothelin receptor
ETA endothelin receptor = molecular target: T1, ETA endothelin receptor
T1 sequence (P25101 whole entry, species assumed, looked up): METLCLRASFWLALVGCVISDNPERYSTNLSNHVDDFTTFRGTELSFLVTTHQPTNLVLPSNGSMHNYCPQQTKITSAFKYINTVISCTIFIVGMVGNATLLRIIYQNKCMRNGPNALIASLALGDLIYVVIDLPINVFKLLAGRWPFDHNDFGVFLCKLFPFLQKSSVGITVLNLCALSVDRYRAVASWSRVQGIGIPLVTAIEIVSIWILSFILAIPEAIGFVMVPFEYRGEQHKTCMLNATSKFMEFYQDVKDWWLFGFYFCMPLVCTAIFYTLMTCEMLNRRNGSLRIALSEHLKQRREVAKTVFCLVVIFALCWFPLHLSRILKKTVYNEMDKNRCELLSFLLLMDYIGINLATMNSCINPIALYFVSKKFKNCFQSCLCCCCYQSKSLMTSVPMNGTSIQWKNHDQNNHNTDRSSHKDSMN

NK1 tachykinin receptor = NK1 tachykinin receptor (UniProt P25103)
NK2 tachykinin receptor = NK2 tachykinin receptor (UniProt P21452)
NK3 tachykinin receptor = molecular target: T2, NK3 tachykinin receptor (UniProt P29371)
T2 sequence (looked up): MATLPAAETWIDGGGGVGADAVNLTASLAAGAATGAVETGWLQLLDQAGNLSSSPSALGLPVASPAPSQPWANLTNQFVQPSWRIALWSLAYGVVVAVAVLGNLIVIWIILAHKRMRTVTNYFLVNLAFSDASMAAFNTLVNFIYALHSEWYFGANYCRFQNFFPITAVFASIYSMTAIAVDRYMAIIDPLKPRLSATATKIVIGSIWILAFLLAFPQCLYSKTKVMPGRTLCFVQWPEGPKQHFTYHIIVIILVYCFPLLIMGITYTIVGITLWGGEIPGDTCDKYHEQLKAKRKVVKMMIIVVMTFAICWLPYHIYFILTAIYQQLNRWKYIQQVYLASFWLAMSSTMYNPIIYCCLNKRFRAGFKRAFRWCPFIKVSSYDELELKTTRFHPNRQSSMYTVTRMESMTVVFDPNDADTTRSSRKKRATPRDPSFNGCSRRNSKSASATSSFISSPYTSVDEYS

[1] = molecular target: human trk A receptor (human) (UniProt P04629)
trk C receptor subtype = molecular target: trk C receptor subtype

Sequence of NK1 tachykinin receptor (P25103 whole entry): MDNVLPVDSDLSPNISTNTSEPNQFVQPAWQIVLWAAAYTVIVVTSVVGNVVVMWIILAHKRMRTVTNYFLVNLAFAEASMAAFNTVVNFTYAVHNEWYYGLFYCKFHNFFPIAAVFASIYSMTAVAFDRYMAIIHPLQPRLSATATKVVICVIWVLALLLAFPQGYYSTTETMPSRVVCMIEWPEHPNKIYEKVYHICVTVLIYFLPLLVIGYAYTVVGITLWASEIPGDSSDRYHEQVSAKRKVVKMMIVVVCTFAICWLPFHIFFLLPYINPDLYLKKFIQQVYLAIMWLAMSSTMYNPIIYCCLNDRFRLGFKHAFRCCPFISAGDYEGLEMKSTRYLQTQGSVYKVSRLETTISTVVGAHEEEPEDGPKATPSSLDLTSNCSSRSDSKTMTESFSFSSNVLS
Sequence of ETB endothelin receptor (P24530 whole entry): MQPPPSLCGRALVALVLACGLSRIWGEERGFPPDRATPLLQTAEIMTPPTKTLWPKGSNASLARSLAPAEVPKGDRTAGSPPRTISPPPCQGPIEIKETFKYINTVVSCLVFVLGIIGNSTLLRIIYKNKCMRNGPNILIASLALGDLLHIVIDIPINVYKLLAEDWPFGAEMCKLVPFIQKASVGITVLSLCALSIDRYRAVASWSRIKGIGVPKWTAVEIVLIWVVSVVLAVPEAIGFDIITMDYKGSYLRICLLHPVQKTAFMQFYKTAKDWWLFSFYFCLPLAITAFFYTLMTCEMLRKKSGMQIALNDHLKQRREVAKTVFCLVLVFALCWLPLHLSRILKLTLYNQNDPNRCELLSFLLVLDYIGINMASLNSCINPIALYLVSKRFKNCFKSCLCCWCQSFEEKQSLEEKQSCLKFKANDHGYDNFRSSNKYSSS
Sequence of NK2 tachykinin receptor (P21452 whole entry): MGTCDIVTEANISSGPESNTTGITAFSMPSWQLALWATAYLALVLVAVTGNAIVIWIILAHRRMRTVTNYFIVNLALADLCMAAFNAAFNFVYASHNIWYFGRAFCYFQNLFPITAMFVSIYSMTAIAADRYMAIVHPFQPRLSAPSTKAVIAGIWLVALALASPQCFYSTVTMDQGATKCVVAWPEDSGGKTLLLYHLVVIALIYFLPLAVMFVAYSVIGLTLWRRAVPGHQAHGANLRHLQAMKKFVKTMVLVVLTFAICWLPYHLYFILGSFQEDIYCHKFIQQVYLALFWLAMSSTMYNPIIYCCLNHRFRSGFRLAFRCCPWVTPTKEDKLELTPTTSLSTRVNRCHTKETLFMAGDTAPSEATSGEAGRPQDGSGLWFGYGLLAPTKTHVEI
Sequence of human trk A receptor (human) (P04629 33-796): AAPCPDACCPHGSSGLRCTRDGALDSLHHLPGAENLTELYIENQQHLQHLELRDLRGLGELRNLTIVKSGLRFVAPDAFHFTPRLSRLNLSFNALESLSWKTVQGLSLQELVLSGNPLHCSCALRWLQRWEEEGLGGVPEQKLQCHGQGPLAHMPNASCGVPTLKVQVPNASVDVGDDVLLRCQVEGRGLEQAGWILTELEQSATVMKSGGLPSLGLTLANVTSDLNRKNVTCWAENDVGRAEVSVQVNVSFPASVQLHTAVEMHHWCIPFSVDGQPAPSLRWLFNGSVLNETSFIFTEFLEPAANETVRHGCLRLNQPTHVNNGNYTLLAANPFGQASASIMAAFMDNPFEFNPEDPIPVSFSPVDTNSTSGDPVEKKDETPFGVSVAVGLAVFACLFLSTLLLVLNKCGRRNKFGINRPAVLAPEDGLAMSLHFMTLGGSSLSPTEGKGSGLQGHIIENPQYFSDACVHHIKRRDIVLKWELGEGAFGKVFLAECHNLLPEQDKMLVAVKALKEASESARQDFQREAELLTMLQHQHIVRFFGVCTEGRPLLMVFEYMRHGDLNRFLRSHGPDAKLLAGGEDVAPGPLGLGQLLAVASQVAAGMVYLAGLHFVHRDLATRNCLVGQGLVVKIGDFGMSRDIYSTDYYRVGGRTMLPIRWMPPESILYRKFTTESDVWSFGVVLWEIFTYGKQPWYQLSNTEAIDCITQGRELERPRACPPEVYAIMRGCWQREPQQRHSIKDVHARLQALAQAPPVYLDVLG

B1: ET-3 (peptide, UniProt P14138 97-117, looked up)
peptide: CTCFTYKDKECVYYCHLDIIW
EC50, amplification assay (β-galactosidase), Single Receptor Format (ETB endothelin receptor): 0.14 nM
EC50, amplification assay (β-galactosidase), Single Receptor Format (ETA endothelin receptor): 2.1 nM

B2: neurokinin B (peptide, UniProt Q9UHF0 81-90, looked up)
peptide: DMHDFFVGLM
EC50, amplification assay (β-galactosidase), Single Receptor Format (NK1 tachykinin receptor): 99 nM
EC50, amplification assay (β-galactosidase), Single Receptor Format (NK2 tachykinin receptor): 1.3 nM
EC50, amplification assay (β-galactosidase), Single Receptor Format (NK3 tachykinin receptor): 100 nM

Continued, values first:

EC50, amplification assay (β-galactosidase), Single Receptor Format (ETA endothelin receptor): 16 nM
B3: ET-2 (peptide, UniProt P20800 49-69, looked up)
peptide: CSCSSWLDKECVYFCHLDIIW

EC50, amplification assay (β-galactosidase), Single Receptor Format [1]: > 1000 ng/mL
EC50, amplification assay (β-galactosidase), Single Receptor Format (trk C receptor subtype): 2.4 ng/mL
B4: neutrotrophic factor NT3 (ligand, UniProt P20783 139-257, looked up)
chain: YAEHKSHRGEYSVCDSESLWVTDKSSAIDIRGHQVTVLGEIKTGNSPVKQYFYETRCKEARPVKNGCRGIDDKHWNSQCKTSQTYVRALTSENNKLVGWRWIRIDTSCVCALSRKIGRT
